Test results reported in US20130064817A1 (Merck Sharp & Dohme, published 2013).

Tests used:
[1] = target: T1, human IL-23R (human, UniProt Q5VWK5 24-353, limits assumed); assay: BIAcore, essentially as in Example 4
T1 construct: KinExA particles are coated with biotinylated IL-23R 'or a fragment thereof, such as the extracellular domain'; also called huIL-23R; hIL-23R
T1 sequence: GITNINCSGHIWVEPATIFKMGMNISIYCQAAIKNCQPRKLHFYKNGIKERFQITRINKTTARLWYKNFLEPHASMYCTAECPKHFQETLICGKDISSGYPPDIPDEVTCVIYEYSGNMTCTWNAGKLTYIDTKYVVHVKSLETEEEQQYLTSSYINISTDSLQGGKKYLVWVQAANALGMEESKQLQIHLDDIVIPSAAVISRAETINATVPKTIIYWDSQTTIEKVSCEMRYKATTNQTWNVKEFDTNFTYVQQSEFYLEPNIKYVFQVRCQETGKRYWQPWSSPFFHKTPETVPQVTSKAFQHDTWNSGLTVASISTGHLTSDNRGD
Protocol: (§1) BIAcore® label-free interaction analysis system determinations are performed essentially as described at Example 4 of U.S. Patent Application Publication No. 2007/0048315. Briefly, ligands (anti-IL-23R mAbs) are immobilized on a BIAcore® label-free interaction analysis system CM5 sensor chip using standard amine-coupling procedure. Kinetic constants for the various interactions are determined using BIAevaluation software 3.1. The Kd is determined using the calculated dissociation and association rate constants.

[2] = target: T2, human IL-23R on human cells (primary splenocytes; KIT225 cells) (human, UniProt Q5VWK5 24-629); assay: cell-based or functional assay
T2 sequence: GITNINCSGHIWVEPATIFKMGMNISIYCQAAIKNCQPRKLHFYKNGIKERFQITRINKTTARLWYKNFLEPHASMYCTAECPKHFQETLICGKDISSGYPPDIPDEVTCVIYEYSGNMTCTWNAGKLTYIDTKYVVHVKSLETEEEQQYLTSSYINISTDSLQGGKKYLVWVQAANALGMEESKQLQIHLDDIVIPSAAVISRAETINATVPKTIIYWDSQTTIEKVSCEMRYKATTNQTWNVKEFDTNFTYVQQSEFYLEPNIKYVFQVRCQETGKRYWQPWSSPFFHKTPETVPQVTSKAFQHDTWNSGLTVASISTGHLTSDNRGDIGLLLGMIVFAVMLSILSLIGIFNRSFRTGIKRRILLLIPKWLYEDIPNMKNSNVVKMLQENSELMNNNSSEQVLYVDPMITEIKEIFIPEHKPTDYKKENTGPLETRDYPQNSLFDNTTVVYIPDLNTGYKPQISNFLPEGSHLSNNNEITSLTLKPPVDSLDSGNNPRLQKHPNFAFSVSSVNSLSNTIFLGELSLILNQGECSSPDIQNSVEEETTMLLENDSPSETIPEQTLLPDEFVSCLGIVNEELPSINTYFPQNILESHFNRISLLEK

[3] = target: T1, human IL-23R; assay: BIAcore, antibody immobilized on CM5 chip
Protocol: as §1

[4] = target: T1, human IL-23R; assay: KinExA
Protocol: The equilibrium dissociation constants (Kd) for anti human IL-23R antibodies are determined using the KinExA 3000 instrument. Sapidyne Instruments Inc., Boise Id., USA KinExA uses the principle of the Kinetic Exclusion Assay method based on measuring the concentration of uncomplexed antibody in a mixture of antibody, antigen and antibody-antigen complex. The concentration of free antibody is measured by exposing the mixture to a solid-phase immobilized antigen for a very brief period of time. In practice, this is accomplished by flowing the solution phase antigen-antibody mixture past antigen-coated particles trapped in a flow cell. Data generated by the instrument are analyzed using custom software. Equilibrium constants are calculated using a mathematical theory based on the following assumptions:
PMMA particles (Sapidyne, Cat No. 440198) are coated with biotinylated IL-23R (or a fragment thereof, such as the extracellular domain) according to Sapidyne “Protocol for coating PMMA particles with biotinylated ligands having short or nonexistent linker arms.” EZ-link TFP PEO-biotin (Pierce, Cat. No. 21219) is used to make biotinylated IL-23R, as per the manufacturer's recommendations (Pierce bulletin 0874).

B1: humanized anti-IL-23R antibody hum20D7 (heavy chain hu20D7-c, light chain hu20D7-II-b) (antibody, human IgG1, kappa, V domains shown)
VH: QVQLVQSGAEVKKPGASVKVSCKASGYTFTNYAMNWVRQAPGQGLEWMGWINTYTGEPTYSDDFKGRVTFTLDTSTSTAYMELRSLRSDDTAVYYCARGGGYDEDYFDYWGQGTLVTVSS
VL: DIVMTQSPLSLPVTPGEPASISCKSSQSLFNTINQKTYLAWYLQKPGQSPQLLIYFASTRESGVPDRFSGSGSGTDFTLKISRVEAEDVGVYYCQQHYDTPWTFGQGTKVEIKR
**Q.** B1 was tested. Which Kd [1] did it give?
**A.** The Kd was 0.131 nM.

**Q.** And the “IC50, IFN-γ production by human primary splenocytes exposed to human IL-23 (170 pM)” value [2]?
**A.** The value was 34 pM.

**Q.** And the “IC50, STAT3 phosphorylation in KIT225 cells stimulated with 138 pM human IL-23” value [2]?
**A.** The value was 34 pM.

B2: rat anti-human IL-23R antibody 8B10 (antibody, rat IgG2a, V domains shown)
VH: EVKLVESGGGLEQPKGSLKLSCTVSGFDFNSYGMSWVRQAPGKGLDLVADINSKSYNYATYYADSVKDRFTISRDDSQSMVYLEMDNLKTEDTALYYCTVHHSDYFEYWGQGVMVTVSS
VL: DIQMTQSPASLSASLGETVSIECLASEDIYNNLAWYQQKPGKSPQLLIYHASSLQDGVPSRFSGSGSGTQYSLKINSLESEDAATYFCLQDSEYPPTFGGGTKLELKR
notes: also called r8B10; parental rat 8B10 antibody
**Q.** How did the Kd [3] turn out when B2 was run?
**A.** Its Kd is roughly 0.3 nM.

**Q.** And the Kd [4]?
**A.** Its Kd is 0.042 nM.

B3: mouse anti-human IL-23R antibody 20D7 (antibody, mouse IgG1, V domains shown)
VH: QIQLVQSGPELKKPGETVKISCKASGYTFTNYAMNWVKQAPGKGLKWMGWINTYTGEPTYSDDFKGRFAFSLETSANTAYLQINNLKNEDTAAYFCTRGGGYDEDYFDYWGQGTTLTVSS
VL: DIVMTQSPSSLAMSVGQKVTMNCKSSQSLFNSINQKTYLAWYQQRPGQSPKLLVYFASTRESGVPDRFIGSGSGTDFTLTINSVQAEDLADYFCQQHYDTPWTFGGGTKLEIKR
notes: also called m20D7; mouse 20D7 antibody
**Q.** Which results are given for B3?
**A.** Kd [3]: ~0.085 nM; Kd [4]: 0.009 nM
